These results are taken from US20120094914A1 (KYUSHU UNIVERSITY NATIONAL UNIVERSITY, published 2012).

The assay addresses T1, biotinylated HLA-G (monomer) refolded with human beta2 microglobulin and peptide … (human, biotinylated with BirA; site not stated).
T1 construct: also called wild-type HLA-G
The experiment in a line: SPR (BIAcore 2000), equilibrium response against LIR2 concentration, fitted binding isotherm; biotinylated HLA-G immobilised via streptavidin, BSA control cell subtracted. The method, then: Surface plasmon resonance experiment was conducted for HLA-G and LILRB2 (LIR2), using BIAcore 2000° (BIAcore AB, St Albans, England). First, streptavidin was covalently immobilized on a laboratory sensor chip CM5 (BIAcore AB), and the biotinylated HLA-G and the negative control BSA were immobilized via the streptavidin. Then, LILRB2 (LIR2) dissolved in the running buffer HBS-EP (10 mM HEPES, pH 7.5, 150 mM sodium chloride, 3.4 mM EDTA, 0.005% Surfactant P20) was flown at 10 μL/min. The binding response at each concentration was calculated by subtracting the measured response in a control flow cell from the response in a sample flow cell. Binding constant (Kd) was obtained by Scatchard analysis, or by the nonlinear curve fitting of standard Langmuir binding isotherm, using ORIGIN 5 (Microcal Software).

B1: LILRB2 (LIR2) (receptor, UniProt Q8N423 24-220, looked up)
chain: GTIPKPTLWAEPDSVITQGSPVTLSCQGSLEAQEYRLYREKKSASWITRIRPELVKNGQFHIPSITWEHTGRYGCQYYSRARWSELSDPLVLVMTGAYPKPTLSAQPSPVVTSGGRVTLQCESQVAFGGFILCKEGEDEHPQCLNSQPHARGSSRAIFSVGPVSPNRRWSHRCYGYDLNSPYVWSSPSDLLELLVPG
notes: domain: ILT4D1D2; also called leukocyte Ig-like receptor B2; ILT4
As a reminder, the Kd is a measure of binding affinity in units of concentration. A higher Kd goes with lower affinity. Regarding B1, binding was put at a Kd of 4.1 µM. In other words, the single-digit micromolar range.
